A value given as a limit tells only on which side of the number the result lay.

This passage reports Kd results from the Immune Epitope Database (IEDB).

The target of one test is HLA-B*18:01. Put plainly: IEDB peptide-MHC binding, purified MHC/competitive/fluorescence; filed as Kd, often an IC50 or EC50 that approximates it; ≥ and ≤ were set here for values at or beyond the usual limits of such assays.
The target in test [1] is HLA-A*02:01. The description is as above.
The target in a further test is HLA-B*27:03. The test is described as above.
A further test addresses HLA-B*51:01. The test is described as above.
The target in test [2] is HLA-A*26:01. The description is as above.
For another test, the target named is HLA-B*39:01. The test is described as above.
Test [3] concerns the target HLA-A*69:01. The description is as above.
In the next test the target is HLA-A*02:11. As to the kind of experiment: IEDB peptide-MHC binding, purified MHC/direct/fluorescence; filed as Kd, often an IC50 or EC50 that approximates it; ≥ and ≤ were set here for values at or beyond the usual limits of such assays.
In a further test the target is HLA-A*68:02. The test is described as above.
Another test deals with HLA-A*23:01. The test is described as above.
In the next test the target is HLA-A*02:12. The description is as above.
For another test, the target named is HLA-A*03:01. The test is described as above.
In another test the target is HLA-A*11:01. The test is described as above.
A further test addresses HLA-A*02:19. The description is as above.
The target of the next test is HLA-A*02:03. Described as above.
Another test concerns the target HLA-A*24:03. The description is as above.
In another test the target is HLA-A*02:16. Described as above.
The next test addresses HLA-A*30:01. Put plainly: IEDB peptide-MHC binding, purified MHC/competitive/fluorescence; filed as Kd, often an IC50 or EC50 that approximates it; ≥ and ≤ were set here for values at or beyond the usual limits of such assays. Particulars: source organism: Human immunodeficiency virus 1.
For another test, the target named is HLA-C*04:01. As to the kind of experiment: IEDB peptide-MHC binding, purified MHC/direct/fluorescence; filed as Kd, often an IC50 or EC50 that approximates it; ≥ and ≤ were set here for values at or beyond the usual limits of such assays. Particulars: source organism: Bacillus anthracis str. A0193.
The next test concerns the target HLA-C*03:03. The test is described as above. Particulars: source organism: Bacillus anthracis str. A0193.
Test [4] concerns the target HLA-B*15:01. As to the kind of experiment: IEDB peptide-MHC binding, purified MHC/competitive/fluorescence; filed as Kd, often an IC50 or EC50 that approximates it; ≥ and ≤ were set here for values at or beyond the usual limits of such assays.
In another test the target is HLA-B*46:01. Described as above. Particulars: source organism: Zaire ebolavirus.
The target in another test is HLA-B*57:01. The test is described as above. Particulars: source organism: Zaire ebolavirus.
In the next test the target is HLA-A*01:01. As to the kind of experiment: IEDB peptide-MHC binding, purified MHC/direct/fluorescence; filed as Kd, often an IC50 or EC50 that approximates it; ≥ and ≤ were set here for values at or beyond the usual limits of such assays.
The next test deals with HLA-A*29:02. The description is as above. Conditions: source organism: Zaire ebolavirus.
The target in test [5] is HLA-B*07:02. As to the kind of experiment: IEDB peptide-MHC binding, purified MHC/competitive/fluorescence; filed as Kd, often an IC50 or EC50 that approximates it; ≥ and ≤ were set here for values at or beyond the usual limits of such assays. Particulars: source organism: Escherichia coli O157:H7 str. EDL933.
In test [6] the target is HLA-B*08:01. The description is as above. Particulars: source organism: Escherichia coli O157:H7 str. EDL933.
Another test deals with HLA-A*02:50. The test is described as above.
For a further test, the target named is HLA-B*58:01. Put plainly: IEDB peptide-MHC binding, purified MHC/direct/fluorescence; filed as Kd, often an IC50 or EC50 that approximates it; ≥ and ≤ were set here for values at or beyond the usual limits of such assays.
The target of test [7] is HLA-B*15:01. The description is as above.
The target in another test is HLA-A*31:01. The test is described as above.
In test [8] the target is HLA-A*02:01. The test is described as above.
A further test deals with HLA-B*27:05. The description is as above.
The next test has as its target HLA-B*40:01. The test is described as above.
In test [9] the target is HLA-A*26:01. Described as above.
In test [10] the target is HLA-A*69:01. The description is as above.
The target in another test is HLA-C*05:01. Described as above. Particulars: source organism: Brucella abortus S19.
Test [11] concerns the target HLA-B*07:02. Described as above. Particulars: source organism: Vibrio cholerae.
In test [12] the target is HLA-B*08:01. Described as above. Particulars: source organism: Vibrio cholerae.
The target in another test is HLA-B*44:02. The description is as above. Particulars: source organism: Vibrio cholerae.
The mark [13] stands for this setting: source organism: Cryptosporidium parvum Iowa II.
Setting [14] is: source organism: Zaire ebolavirus.
Setting [15] is: source organism: Escherichia coli O157:H7 str. EDL933.
Where [16] appears, read: source organism: Haemophilus influenzae.
[17] abbreviates: source organism: Brucella abortus 2308.
[18] abbreviates: source organism: Vibrio cholerae.

Usually Kd stands for the concentration at which binding is half-saturated. Read a high Kd as weaker binding. For MSQMPPHPY, the Kd with HLA-B*18:01 (setting [13]), with HLA-A*02:01 [1] (setting [13]), with HLA-B*27:03 (setting [13]), in the test with HLA-B*51:01 (setting [13]), in the test with HLA-A*26:01 [2] (setting [13]) and with HLA-B*39:01 (setting [13]) was not below 20 µM throughout. In addition, the Kd with HLA-A*69:01 [3] (setting [13]), in the test with HLA-A*02:11 (setting [13]), with HLA-A*68:02 (setting [13]), with HLA-A*23:01 (setting [13]), with HLA-A*02:12 (setting [13]) and in the test with HLA-A*03:01 (setting [13]) was not below 20 µM each time. Further, the Kd is 0.377 µM with HLA-A*11:01 (setting [13]); not below 20 µM with HLA-A*02:19 (setting [13]); not below 20 µM in the test with HLA-A*02:03 (setting [13]); not below 20 µM with HLA-A*24:03 (setting [13]); not below 20 µM with HLA-A*02:16 (setting [13]).
Take EELRSLYNTV: the Kd in the test with HLA-A*30:01 was not below 20 µM.
Turning to YAIYTLGEM, the figures for the Kd with HLA-C*04:01 and in the test with HLA-C*03:03 were not below 20 µM and not above 0.001 µM, respectively.
Take LTDRELLLL: the Kd in the test with HLA-B*18:01 (setting [14]), with HLA-B*15:01 [4] (setting [14]), in the test with HLA-B*46:01, with HLA-B*57:01, with HLA-A*02:01 [1] (setting [14]) and with HLA-B*27:03 (setting [14]) was not below 20 µM in each case. The Kd with HLA-B*51:01 (setting [14]), with HLA-A*26:01 [2] (setting [14]), in the test with HLA-B*39:01 (setting [14]), with HLA-A*69:01 [3] (setting [14]), in the test with HLA-A*02:11 (setting [14]) and in the test with HLA-A*68:02 (setting [14]) was not below 20 µM each time. For the same sequence, the Kd with HLA-A*23:01 (setting [14]) was not below 20 µM; in the test with HLA-A*02:12 (setting [14]), not below 20 µM; with HLA-A*01:01 (source organism: Sudan ebolavirus - Uganda (2000)), 0.255 µM; in the test with HLA-A*03:01 (setting [14]), not below 20 µM; with HLA-A*02:19 (setting [14]) it was not below 20 µM; with HLA-A*29:02, not below 20 µM. Moreover, the Kd with HLA-A*02:03 (setting [14]), in the test with HLA-A*24:03 (setting [14]) and with HLA-A*02:16 (setting [14]) was not below 20 µM each time.
For the sequence MQRSGMLSL, the Kd with HLA-B*15:01 [4] (setting [15]) turned out to be 0.08 µM; with HLA-B*07:02 [5] it was 0.007 µM; with HLA-B*08:01 [6], 0.197 µM; in the test with HLA-B*39:01 (setting [15]) it was 0.061 µM.
As for FLADYRGKT, the equilibrium dissociation constant (Kd) with HLA-A*02:50 (source organism: Haemophilus influenzae R2846) is 0.0019 µM; in the test with HLA-B*58:01 (setting [16]), not below 20 µM; in the test with HLA-B*15:01 [7] (setting [16]) it was not below 20 µM; with HLA-A*01:01 (setting [16]), not below 20 µM; with HLA-A*03:01 (setting [16]) it was not below 20 µM; in the test with HLA-A*11:01 (setting [16]), not below 20 µM. For the same sequence, the Kd with HLA-A*31:01 (setting [16]) is not below 20 µM; with HLA-A*02:01 [8] (setting [16]), 1.36 µM; in the test with HLA-B*27:05 (setting [16]) it was not below 20 µM; with HLA-B*40:01 (setting [16]), not below 20 µM; in the test with HLA-A*26:01 [9] (setting [16]) it was not below 20 µM; with HLA-A*69:01 [10] (setting [16]) it was not below 20 µM.
As for YVDIIGLSV, the Kd in the test with HLA-A*02:50 (source organism: Brucella abortus S19) worked out at 0.0091 µM; with HLA-C*05:01 it was 0.002 µM; in the test with HLA-A*02:12 (source organism: Brucella suis 1330), 0.005 µM; in the test with HLA-A*02:01 [8] (setting [17]) it was 0.056 µM; with HLA-A*69:01 [10] (setting [17]) it was 0.0085 µM.
On to ALYWALMES, for which the dissociation constant Kd was 0.0002 µM with HLA-A*02:50 (source organism: Vibrio cholerae 2740-80); not below 20 µM in the test with HLA-B*58:01 (setting [18]); not below 20 µM with HLA-B*15:01 [7] (setting [18]); not below 20 µM in the test with HLA-A*01:01 (setting [18]); not below 20 µM with HLA-A*03:01 (setting [18]); not below 20 µM with HLA-A*11:01 (setting [18]). Moreover, the Kd was not below 20 µM with HLA-A*31:01 (setting [18]); 0.021 µM with HLA-A*02:01 [8] (setting [18]); not below 20 µM in the test with HLA-A*24:03 (setting [18]); not below 20 µM in the test with HLA-B*07:02 [11]; not below 20 µM in the test with HLA-B*08:01 [12]; not below 20 µM with HLA-B*27:05 (setting [18]). For the same sequence, the Kd in the test with HLA-B*44:02, in the test with HLA-B*40:01 (setting [18]), with HLA-A*26:01 [9] (setting [18]) and in the test with HLA-A*69:01 [10] (setting [18]) was not below 20 µM in each case.
